Assay: yeast display, Sf9 membrane polyspecificity reagent, FACS + sequencing; frameworks hold sequencing errors
Procedure, shortened: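 Galactose-induced (36–48 hours) yeast carrying a synthetic nanobody display library were exposed to 10% biotinylated, detergent-solubilized Sf9 membrane reagent at 4 °C for 1 hour. FACS followed streptavidin microbead enrichment, using low and high (top ~1%) gates for expression (anti-HA) and reagent binding (streptavidin). Colony PCR, MiSeq 2 × 250 sequencing and CDR-length filtering followed. Labels for polyreactivity reflect the gate of origin.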

| Sequence | polyreactivity (PSR sort gate) |
| --- | --- |
| QVQLEESWGGLVQAGGSHRLICAASGSTIGYYAMGWYRQAPWKEREFVASITWGGASTDYADSVKGRFTISRDNAKNSVYLQMNSMKPEDTAVYYCAKDNWDNPRPTSEMDYWGQGTQVTVSS | low polyreactivity |
| QVQLEETRGGLVQAGGSLRLSCAASGSIFPYYALGWYRQAAGKERELVASINQTDGTTYYADSVKGRFTISRDNAKNNVYLQMNSLKPDDTAFYYCPADTTLQAFIPYRPIGSYDSWGQGTQVTVSS | low polyreactivity |
| QVQLEVSGGGLVQAGGSLLLSCAASGFTFYFYAMGWSRQATGTERELVAAISRSGSRTYYADSVKGRFTISRDNAKNTVYLQMNSLKPEDTAVYYCARVRPRGLYFVLHYDYWGQGTHVTVSS | high polyreactivity |
| QVQLGDSGGGLGQAGGSLRLSCAASGSTFASDTMGWYRQEPGKERYLVATISRPGGTTNYADSVKGRFTISRDNAKNTVYLQMNSLKPEDTAVFDCARRYPRYDFAYGYDYWGQGTQGTVSS | high polyreactivity |
| QVQLGESGAGIVQAGGSLRLSCAASGSTFQTYAMGWYRQAPGKERELVAAITWRGGSTYYAHSVKGRFTISRDNAKNTVYLQMNSLKPEDTAVYYCAAKWLGAHDHRAAYDSWGQGTQVTVSS | low polyreactivity |
| QVQLGESGGGLLQAGGSVRLSCAASGRTITANAMGLYRQAPGKERELFATISTRGGRTYYADSVKGRFTISRDNSKNTVYLQMHSLKPEETAVFYGAFTIRAKYTLKEDYWGQGTQVTVSS | low polyreactivity |
| QVQLGESGGGLVQAGGRLRLSCAASGYTFGYYTMGWYRQAPGKERELVASIDSGGGTNYADSVKGRFTISRDNAKNTVYLQMNSVKAEDTAVYYCAAESPLYWVDDFESGWRYYYWGQGTQVTVSS | low polyreactivity |
| QVQLGESGGGLVQAGGSHRLICAATASTLGGYAMGWYRQAPGTERELVAAITRSGGSTYYADSVKGRFTISRDNAKNTVYLQMNSLKPEDTSVNYCGADRYSYFNIGYDYWGQGTQVTVSS | low polyreactivity |
| QVQLGESGGGLVQAGGSLGLSCAASGLTFIVYAMGWYRQAPGKERELVADITWSGGSTYYADSVKGRFTISRDNAKNTVYLQMNSLKPEDTAVYYCNRQSGNIMDYWGQGTQVTVSS | low polyreactivity |
| QVQLGESGGGLVQAGGSLRLRCAASGRIFNGYTMGWYRQAPGKERELVAAISRGGSTYYADSVKGRLTISRDNAKNTVYLLMNSLKPEDTAVYYCAASHRFGYEYWGHGTQVTVSS | high polyreactivity |
| QVQLGESGGGLVQAGGSLRLSCAAAGFIFRPYAMGWYRQAPGKERELVAVISNSGGSSNYADSVKGRFSISRENAKNTVYLQMNSLKPEDTAVDYCNALVYVPHWWTYYDWGQGTQVTVSS | high polyreactivity |
| QVQLGESGGGLVQAGGSLRLSCAACGSIFKPYAMGWYRQAPGTERELVAAISGIGGSTYYADSVKGRFTISRDTAKNTVYLQMNSLTPEDTAVYYCAADTFFKIFSEYNYWGQGTQVTLSS | high polyreactivity |
| QVQLGESGGGLVQAGGSLRLSCAASGFIFGYYAMGWYRQAPGKERELVAAINYNDDSTYYADSVKGRFTISRDNAKNTVYLQMNSLKPEDTAVYYCAAGVWYGYYVSIYLDYDYWGQGTQVTLSS | low polyreactivity |
| QVQLGESGGGLVQAGGSLRLSCAASGGIFIGNAMGWYRQAPGKERELVAAISFSGGSTYYADSVKGRFTISRDNAKNTVYLQMNSLKPEDTAVYYCARRIGHGSRPYWLETWRYPYDYWGQGTQVTVSS | low polyreactivity |
| QVQLGESGGGLVQAGGSLRLSCAASGGILGYNAMGWYRQAPGKERELVATINWSGGSTYADSVKGRFTISRDNAKNTVYLQRNSLKPEDTADSYCNAVRKYWRQGTQVTVSS | low polyreactivity |
| QVQLGESGGGLVQAGGSLRLSCAASGIIFGYYAMGWYRQAPGKERELVAAITWSGGSTYYADSVKGRFTISRDNAKYTVYLQMNSLKPEDTAVYYCAASAYVQPYDYWGQGTQVTVSS | high polyreactivity |
| QVQLGESGGGLVQAGGSLRLSCAASGITFNGYAMGWSRQAPGKERQLVASAIRGTSGSTYYADSVKGRFTISRDNAKNTDYLQMNSLKPEDTTVYYCNADIVIQGVIYYYRNFEYWGQGTQVTVSS | low polyreactivity |
